Data on 1 molecule can be found in article PMC9399999 (Nature Communications, 2022).

In general, Kd refers to the constant that tells how readily two partners part at equilibrium.

The target of this test is Omicron RBD (SARS-CoV-2 Omicron BA.1 (B.1.1.529), S371L | S373P | S375F | K417N | G446S | S477N | E484A | Q493R | G496S | Q498R | …). Description: SPR. The conditions noted are these: both partners purified.

B1: S304 antibody (IgG1) (antibody, V domains shown)
VH: EVQLVESGGGLVQPGGSLRLSCAASGFTFSSYDMHWVRQTTGKGLEWVSTIGTAGDTYYPDSVKGRFTISREDAKNSLYLQMNSLRAGDTAVYYCARGDSSGYYYYFDYWGQGTLLTVSS
VL: DIQMTQSPSSLSAAVGDRVTITCRASQSIGSYLNWYQQKPGKAPKLLIYAASSLQSGVPSRFSGSGSGTDFTLTISSLQPEDFAIYYCQQSYVSPTYTFGPGTKVDIK
notes: IgG1
Take B1: the Kd came out at 1.01 nM.
